Here are results for six molecules from patent publication US12679878B2, “CRF2 receptor agonists and their use in therapy” (SANOFI, priority 2020, dated 2026).

The target in the assay is human corticotropin-releasing factor 2α (CRF2 α receptor) (human), Q13324. The assay is described as follows: cell-based or functional assay.

Starred links: 1 amine or outer side, 2 acyl side, 3 side chain; linkers in the order of their positions; H or OH if unused. Non-standard residues stand in square brackets, D forms with d. Groups on a side chain read outwards from the residue. No end group written: not given here. *: point of attachment. C18 diacid = O=C(O)CCCCCCCCCCCCCCCCC(=O)*; γGlu = O=C(O)[C@H](CCC(=O)[*:2])N[*:1]; Palmitoyl = CCCCCCCCCCCCCCCC(=O)*; AEEA = NCCOCCOCC(=O)O; Aib = CC(C)(N)C(=O)O

human corticotropin-releasing factor 2α (CRF2 α receptor) (human), Q13324, sequence (Q13324 20-411): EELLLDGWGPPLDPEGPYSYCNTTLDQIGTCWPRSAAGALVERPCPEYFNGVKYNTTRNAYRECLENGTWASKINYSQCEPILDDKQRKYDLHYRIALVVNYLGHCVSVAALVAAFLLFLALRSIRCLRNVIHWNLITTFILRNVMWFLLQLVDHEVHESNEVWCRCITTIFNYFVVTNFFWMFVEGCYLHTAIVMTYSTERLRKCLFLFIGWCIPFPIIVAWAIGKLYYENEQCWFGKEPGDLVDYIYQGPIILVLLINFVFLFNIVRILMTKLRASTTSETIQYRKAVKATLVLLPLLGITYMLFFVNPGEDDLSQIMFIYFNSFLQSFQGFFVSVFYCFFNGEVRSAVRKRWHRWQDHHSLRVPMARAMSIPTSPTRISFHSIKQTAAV

B1: SEQ ID NO: 119 (peptide)
peptide: IVLSLDVPIKLK([AEEA-AEEA-γGlu-C18 diacid])QILLKQERQKK[Aib]RQKAEKNKQILAQV-NH2
modifications: N-terminus assumed
SMILES: CC[C@H](C)[C@H](N)C(=O)N[C@H](C(=O)N[C@@H](CC(C)C)C(=O)N[C@@H](CO)C(=O)N[C@@H](CC(C)C)C(=O)N[C@@H](CC(=O)O)C(=O)N[C@H](C(=O)N1CCC[C@H]1C(=O)N[C@H](C(=O)N[C@@H](CCCCN)C(=O)N[C@@H](CC(C)C)C(=O)N[C@@H](CCCCNC(=O)COCCOCCNC(=O)COCCOCCNC(=O)CC[C@H](NC(=O)CCCCCCCCCCCCCCCCC(=O)O)C(=O)O)C(=O)N[C@@H](CCC(N)=O)C(=O)N[C@H](C(=O)N[C@@H](CC(C)C)C(=O)N[C@@H](CC(C)C)C(=O)N[C@@H](CCCCN)C(=O)N[C@@H](CCC(N)=O)C(=O)N[C@@H](CCC(=O)O)C(=O)N[C@@H](CCCNC(=N)N)C(=O)N[C@@H](CCC(N)=O)C(=O)N[C@@H](CCCCN)C(=O)N[C@@H](CCCCN)C(=O)NC(C)(C)C(=O)N[C@@H](CCCNC(=N)N)C(=O)N[C@@H](CCC(N)=O)C(=O)N[C@@H](CCCCN)C(=O)N[C@@H](C)C(=O)N[C@@H](CCC(=O)O)C(=O)N[C@@H](CCCCN)C(=O)N[C@@H](CC(N)=O)C(=O)N[C@@H](CCCCN)C(=O)N[C@@H](CCC(N)=O)C(=O)N[C@H](C(=O)N[C@@H](CC(C)C)C(=O)N[C@@H](C)C(=O)N[C@@H](CCC(N)=O)C(=O)N[C@H](C(N)=O)C(C)C)[C@@H](C)CC)[C@@H](C)CC)[C@@H](C)CC)C(C)C)C(C)C
As to B1, the EC50 [nM], 0% HSA worked out at 0.13 nM and the EC50 [nM], 0.1% HSA was determined as 4.97 nM.

B2: SEQ ID NO: 121 (peptide)
peptide: IVLSLDVPIKLK([AEEA-AEEA-γGlu-C18 diacid])QILLKQERQKKQREKAEKNKQILAQV-NH2
modifications: N-terminus assumed
SMILES: CC[C@H](C)[C@H](N)C(=O)N[C@H](C(=O)N[C@@H](CC(C)C)C(=O)N[C@@H](CO)C(=O)N[C@@H](CC(C)C)C(=O)N[C@@H](CC(=O)O)C(=O)N[C@H](C(=O)N1CCC[C@H]1C(=O)N[C@H](C(=O)N[C@@H](CCCCN)C(=O)N[C@@H](CC(C)C)C(=O)N[C@@H](CCCCNC(=O)COCCOCCNC(=O)COCCOCCNC(=O)CC[C@H](NC(=O)CCCCCCCCCCCCCCCCC(=O)O)C(=O)O)C(=O)N[C@@H](CCC(N)=O)C(=O)N[C@H](C(=O)N[C@@H](CC(C)C)C(=O)N[C@@H](CC(C)C)C(=O)N[C@@H](CCCCN)C(=O)N[C@@H](CCC(N)=O)C(=O)N[C@@H](CCC(=O)O)C(=O)N[C@@H](CCCNC(=N)N)C(=O)N[C@@H](CCC(N)=O)C(=O)N[C@@H](CCCCN)C(=O)N[C@@H](CCCCN)C(=O)N[C@@H](CCC(N)=O)C(=O)N[C@@H](CCCNC(=N)N)C(=O)N[C@@H](CCC(=O)O)C(=O)N[C@@H](CCCCN)C(=O)N[C@@H](C)C(=O)N[C@@H](CCC(=O)O)C(=O)N[C@@H](CCCCN)C(=O)N[C@@H](CC(N)=O)C(=O)N[C@@H](CCCCN)C(=O)N[C@@H](CCC(N)=O)C(=O)N[C@H](C(=O)N[C@@H](CC(C)C)C(=O)N[C@@H](C)C(=O)N[C@@H](CCC(N)=O)C(=O)N[C@H](C(N)=O)C(C)C)[C@@H](C)CC)[C@@H](C)CC)[C@@H](C)CC)C(C)C)C(C)C
Take B2: the EC50 [nM], 0% HSA is 0.73 nM and the EC50 [nM], 0.1% HSA amounted to 41.3 nM.

B3: SEQ ID NO: 123 (peptide)
peptide: IVLSLDVPIKLK([AEEA-AEEA-γGlu-C18 diacid])QILLEQARQK[Aib]QRAQAEKNKRILERV-NH2
modifications: N-terminus assumed
SMILES: CC[C@H](C)[C@H](N)C(=O)N[C@H](C(=O)N[C@@H](CC(C)C)C(=O)N[C@@H](CO)C(=O)N[C@@H](CC(C)C)C(=O)N[C@@H](CC(=O)O)C(=O)N[C@H](C(=O)N1CCC[C@H]1C(=O)N[C@H](C(=O)N[C@@H](CCCCN)C(=O)N[C@@H](CC(C)C)C(=O)N[C@@H](CCCCNC(=O)COCCOCCNC(=O)COCCOCCNC(=O)CC[C@H](NC(=O)CCCCCCCCCCCCCCCCC(=O)O)C(=O)O)C(=O)N[C@@H](CCC(N)=O)C(=O)N[C@H](C(=O)N[C@@H](CC(C)C)C(=O)N[C@@H](CC(C)C)C(=O)N[C@@H](CCC(=O)O)C(=O)N[C@@H](CCC(N)=O)C(=O)N[C@@H](C)C(=O)N[C@@H](CCCNC(=N)N)C(=O)N[C@@H](CCC(N)=O)C(=O)N[C@@H](CCCCN)C(=O)NC(C)(C)C(=O)N[C@@H](CCC(N)=O)C(=O)N[C@@H](CCCNC(=N)N)C(=O)N[C@@H](C)C(=O)N[C@@H](CCC(N)=O)C(=O)N[C@@H](C)C(=O)N[C@@H](CCC(=O)O)C(=O)N[C@@H](CCCCN)C(=O)N[C@@H](CC(N)=O)C(=O)N[C@@H](CCCCN)C(=O)N[C@@H](CCCNC(=N)N)C(=O)N[C@H](C(=O)N[C@@H](CC(C)C)C(=O)N[C@@H](CCC(=O)O)C(=O)N[C@@H](CCCNC(=N)N)C(=O)N[C@H](C(N)=O)C(C)C)[C@@H](C)CC)[C@@H](C)CC)[C@@H](C)CC)C(C)C)C(C)C
As for B3, the EC50 [nM], 0% HSA amounted to 0.33 nM and the EC50 [nM], 0.1% HSA is 9.74 nM.

B4: SEQ ID NO: 122 (peptide)
peptide: IVLSLDVPIKLK([AEEA-AEEA-γGlu-C18 diacid])QILLKQERQKKQRQQAEKNKQILAQV-NH2
modifications: N-terminus assumed
SMILES: CC[C@H](C)[C@H](N)C(=O)N[C@H](C(=O)N[C@@H](CC(C)C)C(=O)N[C@@H](CO)C(=O)N[C@@H](CC(C)C)C(=O)N[C@@H](CC(=O)O)C(=O)N[C@H](C(=O)N1CCC[C@H]1C(=O)N[C@H](C(=O)N[C@@H](CCCCN)C(=O)N[C@@H](CC(C)C)C(=O)N[C@@H](CCCCNC(=O)COCCOCCNC(=O)COCCOCCNC(=O)CC[C@H](NC(=O)CCCCCCCCCCCCCCCCC(=O)O)C(=O)O)C(=O)N[C@@H](CCC(N)=O)C(=O)N[C@H](C(=O)N[C@@H](CC(C)C)C(=O)N[C@@H](CC(C)C)C(=O)N[C@@H](CCCCN)C(=O)N[C@@H](CCC(N)=O)C(=O)N[C@@H](CCC(=O)O)C(=O)N[C@@H](CCCNC(=N)N)C(=O)N[C@@H](CCC(N)=O)C(=O)N[C@@H](CCCCN)C(=O)N[C@@H](CCCCN)C(=O)N[C@@H](CCC(N)=O)C(=O)N[C@@H](CCCNC(=N)N)C(=O)N[C@@H](CCC(N)=O)C(=O)N[C@@H](CCC(N)=O)C(=O)N[C@@H](C)C(=O)N[C@@H](CCC(=O)O)C(=O)N[C@@H](CCCCN)C(=O)N[C@@H](CC(N)=O)C(=O)N[C@@H](CCCCN)C(=O)N[C@@H](CCC(N)=O)C(=O)N[C@H](C(=O)N[C@@H](CC(C)C)C(=O)N[C@@H](C)C(=O)N[C@@H](CCC(N)=O)C(=O)N[C@H](C(N)=O)C(C)C)[C@@H](C)CC)[C@@H](C)CC)[C@@H](C)CC)C(C)C)C(C)C
In turn, B4 displayed an EC50 [nM], 0% HSA of 0.04 nM and an EC50 [nM], 0.1% HSA of 1.71 nM.

B5: SEQ ID NO: 12 (peptide)
peptide: FTLSLDVPTKIK([γGlu-Palmitoyl])QKLLKQEKQRKQKQQAKTNAKILARV-NH2
modifications: N-terminus assumed
SMILES: CCCCCCCCCCCCCCCC(=O)N[C@@H](CCC(=O)NCCCC[C@H](NC(=O)[C@@H](NC(=O)[C@H](CCCCN)NC(=O)[C@@H](NC(=O)[C@@H]1CCCN1C(=O)[C@@H](NC(=O)[C@H](CC(=O)O)NC(=O)[C@H](CC(C)C)NC(=O)[C@H](CO)NC(=O)[C@H](CC(C)C)NC(=O)[C@@H](NC(=O)[C@@H](N)Cc1ccccc1)[C@@H](C)O)C(C)C)[C@@H](C)O)[C@@H](C)CC)C(=O)N[C@@H](CCC(N)=O)C(=O)N[C@@H](CCCCN)C(=O)N[C@@H](CC(C)C)C(=O)N[C@@H](CC(C)C)C(=O)N[C@@H](CCCCN)C(=O)N[C@@H](CCC(N)=O)C(=O)N[C@@H](CCC(=O)O)C(=O)N[C@@H](CCCCN)C(=O)N[C@@H](CCC(N)=O)C(=O)N[C@@H](CCCNC(=N)N)C(=O)N[C@@H](CCCCN)C(=O)N[C@@H](CCC(N)=O)C(=O)N[C@@H](CCCCN)C(=O)N[C@@H](CCC(N)=O)C(=O)N[C@@H](CCC(N)=O)C(=O)N[C@@H](C)C(=O)N[C@@H](CCCCN)C(=O)N[C@H](C(=O)N[C@@H](CC(N)=O)C(=O)N[C@@H](C)C(=O)N[C@@H](CCCCN)C(=O)N[C@H](C(=O)N[C@@H](CC(C)C)C(=O)N[C@@H](C)C(=O)N[C@@H](CCCNC(=N)N)C(=O)N[C@H](C(N)=O)C(C)C)[C@@H](C)CC)[C@@H](C)O)C(=O)O
B5 came in with an EC50 [nM], 0% HSA of 0.09 nM.

B6: SEQ ID NO: 120 (peptide)
peptide: IVLSLDVPIKLK([AEEA-AEEA-γGlu-C18 diacid])QILLKQERQKKQREQAEKNKQILEQV-NH2
modifications: N-terminus assumed
SMILES: CC[C@H](C)[C@H](N)C(=O)N[C@H](C(=O)N[C@@H](CC(C)C)C(=O)N[C@@H](CO)C(=O)N[C@@H](CC(C)C)C(=O)N[C@@H](CC(=O)O)C(=O)N[C@H](C(=O)N1CCC[C@H]1C(=O)N[C@H](C(=O)N[C@@H](CCCCN)C(=O)N[C@@H](CC(C)C)C(=O)N[C@@H](CCCCNC(=O)COCCOCCNC(=O)COCCOCCNC(=O)CC[C@H](NC(=O)CCCCCCCCCCCCCCCCC(=O)O)C(=O)O)C(=O)N[C@@H](CCC(N)=O)C(=O)N[C@H](C(=O)N[C@@H](CC(C)C)C(=O)N[C@@H](CC(C)C)C(=O)N[C@@H](CCCCN)C(=O)N[C@@H](CCC(N)=O)C(=O)N[C@@H](CCC(=O)O)C(=O)N[C@@H](CCCNC(=N)N)C(=O)N[C@@H](CCC(N)=O)C(=O)N[C@@H](CCCCN)C(=O)N[C@@H](CCCCN)C(=O)N[C@@H](CCC(N)=O)C(=O)N[C@@H](CCCNC(=N)N)C(=O)N[C@@H](CCC(=O)O)C(=O)N[C@@H](CCC(N)=O)C(=O)N[C@@H](C)C(=O)N[C@@H](CCC(=O)O)C(=O)N[C@@H](CCCCN)C(=O)N[C@@H](CC(N)=O)C(=O)N[C@@H](CCCCN)C(=O)N[C@@H](CCC(N)=O)C(=O)N[C@H](C(=O)N[C@@H](CC(C)C)C(=O)N[C@@H](CCC(=O)O)C(=O)N[C@@H](CCC(N)=O)C(=O)N[C@H](C(N)=O)C(C)C)[C@@H](C)CC)[C@@H](C)CC)[C@@H](C)CC)C(C)C)C(C)C
For the molecule B6, the EC50 [nM], 0% HSA came out at 1.27 nM and the EC50 [nM], 0.1% HSA turned out to be 61.1 nM.
